Reference: patent US20160102137A1

Key:
Test in all cases: cell-based or functional assay
[1] = target: HIV-1 envelope (Env) spike trimer of strain SC4226618 (HIV-1 strain SC4226618)
[2] = target: HIV-1 envelope (Env) spike trimer of strain CAP210 (HIV-1 strain CAP210)
[3] = target: HIV-1 envelope (Env) spike trimer of strain 6535.3 (HIV-1 strain 6535.3)

Row | Substance | neutralization potency compared with the mixture of Fabs plus dsDNA or the more potent of the two Fabs alone [1] [fold] | neutralization potency compared with the mixture of Fabs plus dsDNA or the more potent of the two Fabs alone [2] [fold] | neutralization potency (IC50) compared with 3BNC60 IgG against HIV-1 6535.3 [3] [fold]
1 | PG16-60 bp-b12 hetero-diFab (bispecific antibody) | 10 | 10 | –
2 | 3BNC60-62 bp-3BNC60 homo-diFab | – | – | 100
